{"source": "patent US11191841B2", "about": "“Supramolecular modification of proteins” (Massachusetts Institute of Technology, priority 2015, dated 2021)", "key": {"[1]": {"experiment": "Glucagon stability assessment (solubility, circular dichroism)", "assay_type": "physicochemical", "experimental": "Human recombinant glucagon (Sigma) was dissolved at 4 mg/ml in PBS containing 1 mM HCl. This was mixed 1:1 with 1 equivalent of CB[7]-PEG10k in PBS, or in PBS alone, for a final glucagon concentration of 2 mg/ml. Vials were left to age at room temperature for various times. Circular dichroism was performed on samples without dilution, as well as on freshly dissolved glucagon, by utilizing a […] cuvette."}, "[2]": {"details": "general statement, glucagon alone; cited from earlier work"}, "[3]": {"details": "reported previously (Shaikh et al. 2008); used for fitting; cited from earlier work"}, "native insulin": {"biological_target": "native insulin (Homo sapiens, UniProt P01308)", "experiment": "Acridine orange competitive binding assay", "details": "AO 8 μM, CB[7] or PEG-T-CB[7] 6 μM, insulin 0-15 μM, in water; one-site competitive binding model; read-out: KD (binding constant toward insulin)", "experimental": "To confirm binding of PEG-T-CB[7] to native insulin, a competitive binding assay was performed using acridine orange (AO) (FIG. 2D). In this assay, the fluorescent emission spectrum of AO is collected. The fluorescence intensity of AO increases when in complex with CB[7] relative to its emission when free in solution. As insulin is added, the CB[7]*AO complex dissociates as a result of stronger binding affinity of the B1 Phenylalanine residue to the CB[7], resulting in a reduction to the measured fluorescence intensity of AO.\nBinding of PEG-T-CB[7] conjugates to insulin was assessed using the acridine orange dye displacement assay, in accordance with a previously described protocol. See, e.g., Chinai et al. Journal of the American Chemical Society 2011, 133(23): 8810-8813 Briefly, 6 μM of either unmodified CB[7] or the PEG-T-CB[7] conjugates and 8 μM acridine orange were combined with recombinant insulin (0, 1, 2, 4, 6, 8, 10, 12.5, 15 μM) in H2O. Samples were incubated overnight in light-free conditions and fluorescent spectra were collected on an Infinite® M1000 plate reader (Tecan Group, Ltd.), exciting at 485 nm and collecting the resulting fluorescent spectra from 495-650 nm. […]"}, "[4]": {"test_system": "STZ-induced diabetic mice", "experiment": "In vivo blood glucose in STZ diabetic mice", "set-up": "species or system mouse", "details": "insulin 1 IU/kg s.c., alone or with 5 molar equivalents host; normoglycemia <200 mg/dL; 6-hour study", "experimental": "A mouse model of insulin-deficient diabetes, prepared using streptozotocin to induce pancreatic ß-cell death, was used to evaluate the function of PEG-T-CB[7] conjugates in vivo (FIG. 4A). Following the onset of diabetes, mice were fasted overnight to ensure an average starting blood glucose level of approximately 450 mg/dL. See, e.g., Like et al. Science 1976, 193(4251): 415-417. Insulin was then administered subcutaneously at a dose of 1 IU/kg in a saline vehicle. Alternatively, an identical dose of insulin was administered along with CB [7], PEG5k-T-CB[7], PEG10k-T-CB [7], or PEG30k-T-CB [7]. All insulin formulations reduced average blood glucose to a normoglycemic level (<200 mg/dL for a mouse) following a single subcutaneous administration. Animals that received either native insulin or insulin formulated with unmodified CB[7] became hyperglycemic again approximately 2 hours following administration. […]\nMale C57BL/6J, age 8 weeks, were purchased the Jackson Laboratory. […] Mice were allowed to eat ad libitum and glucose levels were monitored by peripheral tail vein bleeds using a portable glucose meter (Accu-Chek Aviva, Roche) daily until unfasted glucose levels >400 mg/dL. […] Blood glucose readings were collected every 30 minutes using a handheld glucose meter for 6 hours following insulin injection."}, "[5]": {"experiment": "Insulin aggregation assay (transmittance at 540 nm)", "assay_type": "physicochemical", "details": "insulin 1 mg/mL, pH 7.4, 37° C., continuous agitation", "experimental": "Insulin is well known to form fibrillar aggregates in physiologic conditions. To determine whether PEG-T-CB[7] can stabilize insulin and prevent its aggregation, assays were performed in physiologic salt concentrations at pH 7.4 and 37° C. with continuous agitation to determine the kinetics of insulin aggregation in a solution of 1 mg/mL protein (FIG. 3A). Specifically, transmittance was measured at 540 nm, a wavelength where both insulin and the PEG-T-CB[7] have negligible absorbance in order to detect the formation of aggregates, which scatter light, in solution over time. […] After the initial 100 h study, data were collected once daily to determine the duration of stability for each PEG-T-CB[7]/insulin formulation (FIG. 3B).\nRecombinant human insulin was dissolved at 4 mg/ml in 2 mM HCl with 150 mM NaCl. […] The plate was immediately placed into an Infinite® M1000 plate reader (Tecan Group, Ltd.) and shaken continuously at 37° C. Absorbance readings at 540 nm were collected every 6 minutes for 100 hours, and absorbance values were subsequently converted to transmittance. […] Following the 100-hour kinetic study, the plate was maintained under continuous agitation at 37° C. and absorbance at 540 nm was monitored daily to approximate tA for the PEG-T-CB[7] conjugates."}}}
{"substance": "Glucagon: Human recombinant glucagon (Sigma)", "values": [{"measurement": "glucagon conformation by circular dichroism after aging", "setting": "[1]; aged for 24 hours at room temperature, 2 mg/ml", "value": "no appreciable glucagon in solution"}, {"measurement": "glucagon solubility when dissolved alone", "setting": "[1]; glucagon 2 mg/ml in PBS alone", "value": "readily precipitates from solution"}, {"measurement": "typical duration of aqueous solubility of glucagon", "setting": "[2]", "value": "less than one hour"}]}
{"substance": "cucurbit[7]uril [CB[7]]", "values": [{"measurement": "CB[7]•AO equilibrium constant Keq", "setting": "[3]", "value": 200000, "unit": "M⁻¹"}, {"measurement": "Kd", "setting": "native insulin", "value": "2.3 ± 0.2", "unit": "µM"}]}
{"substance": "native insulin: Recombinant human insulin, unmodified; aged or fresh as stated", "values": [{"measurement": "duration of normoglycemia following administration (time until hyperglycemic again)", "setting": "[4]", "value": "approximately 2 hours"}, {"measurement": "aggregation time (tA), time after which a 10% reduction in transmittance is observed", "setting": "[5]; alone or with 1 equivalent host, physiologic salt", "value": "13.6 ± 0.2", "unit": "h"}, {"measurement": "insulin aggregation in 100 hours of kinetic study", "setting": "[5]; 100 h", "value": "Rapid aggregation"}]}
